The record followed here is patent publication US6861509 (Biogen, dated 2005).

For this assay, the target named is T1, human RetL2 (insert of clone DSW240) expressed on 293/EBNA cells (human, UniProt O00451 22-444).
T1 construct: no cleavage sites are stated; also called retL2 expression plasmid
T1 sequence: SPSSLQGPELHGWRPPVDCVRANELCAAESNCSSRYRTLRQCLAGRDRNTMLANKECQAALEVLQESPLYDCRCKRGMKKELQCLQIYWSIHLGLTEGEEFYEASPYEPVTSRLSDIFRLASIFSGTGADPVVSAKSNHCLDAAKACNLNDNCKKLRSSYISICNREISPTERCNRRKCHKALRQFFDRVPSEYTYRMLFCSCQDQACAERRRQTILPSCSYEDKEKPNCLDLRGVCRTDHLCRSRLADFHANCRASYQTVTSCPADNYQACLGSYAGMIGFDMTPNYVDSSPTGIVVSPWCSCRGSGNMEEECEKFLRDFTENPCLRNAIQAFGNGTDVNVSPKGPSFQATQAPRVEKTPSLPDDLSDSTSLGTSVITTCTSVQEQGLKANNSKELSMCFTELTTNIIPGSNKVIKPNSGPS
The assay is described as follows: staining of 293/EBNA cells transfected with the insert of clone DSW240. As to the method:
Plasmid DNAs (the retL2 expression plasmid, a retL1 expression plasmid for a positive control, and an expression plasmid containing an unrelated protein for a negative control) are transfected into 293/EBNA cells (8 ×10^5 on a 60 mm plate) using the lipofection method. After 48 hr, the cells are washed two times with HBHA buffer (0.5 mg/ml BSA, 0.1% NaN_3, 20 mM HEPES (pH 7.0)) and incubated with 20 ug/ml rat Ret/IgG in Tris-buffered saline plus 1 mM MgCl_2 and CaCl_2 for 60–90 min at room temperature. Following this incubation, the cells are washed four times with HBHA buffer and then fixed with 60% acetone/3% formaldehyde/20 mM HEPES (pH 7.0) for 30 sec. […]

B1: rat Ret/IgG fusion protein (Fc fusion)
chain: EAPLGLYFSRDAYWERLYVDQPAGTPLLYVHALRDAPGEVPSFRLGQYLYGVYRTRLHENDWIHIDAGTGLLYLNQSLDHSSWEQLSIRNGGFPLLTVFLQVFLGSTAQREGECHWPGCARVYFSFINDTFPNCSSFKARDLCTPETGVSFRIRENRPPGTFYQFRMLPVQFLCPNISVKYKLLEGDGLPFRCDPDCLEVSTRWALDRELQEKYVLEAECAVAGPGANKEKVAVSFPVTVYDEDDSPPTFSGGVGTASAVVEFKRKEGTVVATLQVFDADVVPASGELVRRYTSTLLSGDSWAQQTFRVEHTPNETLVQSNNNSVRATMHNYKLVLNRSLSISESRVLQLVVLVNDSDFQGPGSGVLFLHFNVSVLPVTLNLPMAYSFPVNRRARRYAQIGKVCVENCQEFSGVSIQYKLQPSSTNCSALGVVTSTEDTSGTLYVNDTEALRRPECTELQYTVVATDRQTRRQTQASLVVTVEGTYIAEEVGCPKSCAVNKRRPECEECGGLGSPTGRCEWRQGDGKGITRNFSTCSPSTRTCPDGHCDALESRDINICPQDCLRGPIVGGHERGERQGIKAGYGICNCFPDEKKCFCEPEDSQGPLCDALCRT
notes: Made in COS or CHO cells and purified on Protein A; also called Ret/Ig fusion protein; soluble Ret/IgG fusion protein; not shown: Fc portion of human IgG1 (part of the Fc domain, 700 bp Sal1 fragment from plasmid 2-4, originally from pSAB144)
With B1, the binding result is given as “binds”.
